{"source": "patent US10618965", "about": "(dated 2020)", "key": {"[1]": {"target": "T1, human FcgRIIb (human)", "T1 chain": "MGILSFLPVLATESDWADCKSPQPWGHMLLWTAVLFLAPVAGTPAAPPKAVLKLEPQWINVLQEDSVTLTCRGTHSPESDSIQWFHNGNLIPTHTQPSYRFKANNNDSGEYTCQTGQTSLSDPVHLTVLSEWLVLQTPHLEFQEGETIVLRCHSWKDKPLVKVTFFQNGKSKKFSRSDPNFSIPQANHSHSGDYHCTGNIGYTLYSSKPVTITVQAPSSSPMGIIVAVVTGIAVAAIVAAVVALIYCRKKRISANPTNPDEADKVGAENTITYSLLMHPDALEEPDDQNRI", "assay": "SPR"}, "[2]": {"target": "human FcgRIa (human)", "sequence (chain, as listed by the source)": "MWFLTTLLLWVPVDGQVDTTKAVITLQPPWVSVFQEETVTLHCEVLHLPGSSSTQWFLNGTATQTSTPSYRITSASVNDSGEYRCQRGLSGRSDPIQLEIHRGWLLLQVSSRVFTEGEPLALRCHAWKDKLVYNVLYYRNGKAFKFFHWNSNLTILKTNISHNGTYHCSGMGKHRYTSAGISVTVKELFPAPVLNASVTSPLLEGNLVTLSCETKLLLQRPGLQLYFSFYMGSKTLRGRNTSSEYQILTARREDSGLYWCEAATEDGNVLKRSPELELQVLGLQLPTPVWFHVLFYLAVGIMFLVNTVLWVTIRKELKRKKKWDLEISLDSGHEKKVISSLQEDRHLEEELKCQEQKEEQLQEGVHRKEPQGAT", "assay": "SPR"}}, "data": [{"binder": "IL6R-BP083 (antibody) chain 1: QVQLQESGPGLVKPSETLSLTCAVSGHSISHDHAWSWVRQPPGEGLEWIGFISYSGITNYNPSLQGRVTISRDNSKNTLYLQMNSLRAEDTAVYYCARSLARTTAMDYWGEGTLVTVSSASTKGPSVFPLAPSSKSTSGGTAALGCLVKDYFPEPVTVSWNSGALTSGVHTFPAVLQSSGLYSLSSVVTVPSSSLGTQTYICNVNHKPSNTKVDKKVEPKSCDKTHTCPPCPAPELLGGDSVFLFPPKPKDTLMISRTPEVTCVVVDVSHEDPEVKFNWYVDGVEVHNAKTKPREEQDNSTYRVVSVLTVLHQDWLNGKEYKCKVSNKALPKPIEKTISKAKGQPREPQVYTLPPSRDELTKNQVSLTCLVKGFYPSDIAVEWESNGQPENNYKTTPPVLDSDGSFFLYSKLTVDKSRWQQGNVFSCSVMHEALHNHYTQESLSLSP chain 2: DIQMTQSPSSLSASVGDRVTITCRASQDISSYLNWYQQKPGKAPKLLIYYTSRLHSGVPSRFSGSGSGTDFTFTISSLQPEDIATYYCQQGNTLPYTFGQGTKVEIK", "values": [{"measurement": "Kd", "setting": "[1]", "result": 790, "unit": "nM"}, {"measurement": "Kd", "setting": "[2]", "result": 3.6, "unit": "nM"}]}, {"binder": "IL6R-BP133 (antibody) chain 1: QVQLQESGPGLVKPSETLSLTCAVSGHSISHDHAWSWVRQPPGEGLEWIGFISYSGITNYNPSLQGRVTISRDNSKNTLYLQMNSLRAEDTAVYYCARSLARTTAMDYWGEGTLVTVSSASTKGPSVFPLAPSSKSTSGGTAALGCLVKDYFPEPVTVSWNSGALTSGVHTFPAVLQSSGLYSLSSVVTVPSSSLGTQTYICNVNHKPSNTKVDKKVEPKSCDKTHTCPPCPAPDYLGGDSVFLFPPKPKDTLMISRTPEVTCVVVDVSHEDPEVKFNWYVDGVEVHNAKTKPREEQYNSTYRVVSVLTVLHQDWLNGKEYKCKVSNKALPKPIEKTISKAKGQPREPQVYTLPPSRDELTKNQVSLTCLVKGFYPSDIAVEWESNGQPENNYKTTPPVLDSDGSFFLYSKLTVDKSRWQQGNVFSCSVMHEALHNHYTQESLSLSP chain 2: DIQMTQSPSSLSASVGDRVTITCRASQDISSYLNWYQQKPGKAPKLLIYYTSRLHSGVPSRFSGSGSGTDFTFTISSLQPEDIATYYCQQGNTLPYTFGQGTKVEIK", "values": [{"measurement": "Kd", "setting": "[1]", "result": 560, "unit": "nM"}, {"measurement": "Kd", "setting": "[2]", "result": 130, "unit": "nM"}]}, {"binder": "IL6R-BP150 (antibody) chain 1: QVQLQESGPGLVKPSETLSLTCAVSGHSISHDHAWSWVRQPPGEGLEWIGFISYSGITNYNPSLQGRVTISRDNSKNTLYLQMNSLRAEDTAVYYCARSLARTTAMDYWGEGTLVTVSSASTKGPSVFPLAPSSKSTSGGTAALGCLVKDYFPEPVTVSWNSGALTSGVHTFPAVLQSSGLYSLSSVVTVPSSSLGTQTYICNVNHKPSNTKVDKKVEPKSCDKTHTCPPCPAPEYLGDDSVFLFPPKPKDTLMISRTPEVTCVVVDVSHEDPEVKFNWYVDGVEVHNAKTKPREEQYNSTYRVVSVLTVLHQDWLNGKEYKCKVSNAALPKPIEKTISKAKGQPREPQVYTLPPSRDELTKNQVSLTCLVKGFYPSDIAVEWESNGQPENNYKTTPPVLDSDGSFFLYSKLTVDKSRWQQGNVFSCSVMHEALHNHYTQESLSLSP chain 2: DIQMTQSPSSLSASVGDRVTITCRASQDISSYLNWYQQKPGKAPKLLIYYTSRLHSGVPSRFSGSGSGTDFTFTISSLQPEDIATYYCQQGNTLPYTFGQGTKVEIK", "values": [{"measurement": "Kd", "setting": "[1]", "result": 31, "unit": "nM"}, {"measurement": "Kd", "setting": "[2]", "result": 320, "unit": "nM"}]}, {"binder": "IL6R-2B261 (antibody) chain 1: QVQLQESGPGLVKPSETLSLTCAVSGHSISHDHAWSWVRQPPGEGLEWIGFISYSGITNYNPSLQGRVTISRDNSKNTLYLQMNSLRAEDTAVYYCARSLARTTAMDYWGEGTLVTVSSASTKGPSVFPLAPSSKSTSGGTAALGCLVKDYFPEPVTVSWNSGALTSGVHTFPAVLQSSGLYSLSSVVTVPSSSLGTQTYICNVNHKPSNTKVDKKVEPKSCDKTHTCPPCPAPDLLGGDSVFLFPPKPKDTLMISRTPEVTCVVVDVSHEDPEVKFNWYVDGVEVHNAKTKPREEQDNSTYRVVSVLTVLHQDWLNGKEYKCKVSNKALPAPIEKTISKAKGQPREPQVYTLPPSRDELTKNQVSLTCLVKGFYPSDIAVEWESNGQPENNYKTTPPVLDSDGSFFLYSKLTVDKSRWQQGNVFSCSVMHEALHNHYTQESLSLSP chain 2: DIQMTQSPSSLSASVGDRVTITCRASQDISSYLNWYQQKPGKAPKLLIYYTSRLHSGVPSRFSGSGSGTDFTFTISSLQPEDIATYYCQQGNTLPYTFGQGTKVEIK", "values": [{"measurement": "Kd", "setting": "[1]", "result": 1000, "unit": "nM"}, {"measurement": "Kd", "setting": "[2]", "result": 9, "unit": "nM"}]}]}
